According to patent US20250197491A1 (MACOMICS, published 2025):

Tests used:
[1] = target: T1, Human LILRB1 (D1-D2) fused to mouse IgG2a Fc (human); assay: ELISA, antigen coated, 10 nM antibody
T1 construct: also called truncated (D1-D2) version of the LILRB1 ecto-domain
Text: (§1) FIG. 3. Mixed LILRB1 and LILRB2 expression in TAMs from melanoma cancer patients. Analysis of LILRB1 and LILRB2 detection in macrophages in pre- and post-anti-PD-1 and/or anti-CTLA-4 therapy treated melanoma patients (n=33) is shown using Smart-seq2 data from Sade-Feldman et al. https://pubmed.ncbi.nlm.nih.gov/30633907/FIG. 4. Binding to domains of human LILRB1. Plates were coated with recombinant full length LILRB1 ectodomain (SEQ ID NO: 41) or a protein comprising domain 1 and 2 of human LILRB1 protein (SEQ ID NO: 42), and then incubated with 10 nM Clones 1-5, Reference Ab 1, and Isotype control. The bound antibodies were detected using HRP-labeled secondary antibodies and the results were plotted on the graph as absorbance measured at 450 nm.
(§2) Binding to allelic forms of LILRB1. There are 4 major allelic variants of human LILRB1 protein ectodomain. The variants of LILRB1 were expressed as recombinant proteins comprising a modified LILRB1 ectodomain and mouse IgG2 Fc region (SEQ ID NO: 50 and 51) in suspension CHO cells, and purified by using techniques that were known in the art. These recombinant proteins were then used in the direct enzyme-linked immunosorbent assay (ELISA) to determine the antibodies potential to bind different allelic forms of LILRB1. In short, Maxisorp (Nunc) or similar immune-assay plates were coated with solutions of target proteins in PBS, at 4° C., overnight. Plates were then washed with PBS, blocked with 5% milk in PBS, and washed again. Test antibodies diluted in PBS were then added to the plates and incubated at room temperature for at least 1h. Plates were subsequently washed with PBS/0.05% Tween-20 (PBST) and incubated with a solution of horse radish peroxidase (HRP) labelled secondary antibodies at room temperature for at least 1 h. After washing with PBST and PBS, bound antibodies were detected using the 3,3′,5,5;-tetramethylbenzidine (TMB) chromogenic solution. After 5 to 10 minutes, the reaction was stopped with 1% sulphuric acid and absorbance read at 450 nm.
(§3) There are four major allelic variants within the ecto-domain of LILRB1 in human population [Human Molecular Genetics, 2005, Vol. 14, 2469-2480]; namely c.203T>C (L68P), c.277G>A (A93T), c.425T>C (I142T), and c.464G>T (S155I).

[2] = target: T2, human LILRB1 ectodomain fused to mIgG2a Fc (human); assay: ELISA, antigen coated, 10 nM antibody
T2 construct: also called human LILRB1-mIgG2a; full length LILRB1 ectodomain
T2 sequence (chain, as listed by the source limits assumed): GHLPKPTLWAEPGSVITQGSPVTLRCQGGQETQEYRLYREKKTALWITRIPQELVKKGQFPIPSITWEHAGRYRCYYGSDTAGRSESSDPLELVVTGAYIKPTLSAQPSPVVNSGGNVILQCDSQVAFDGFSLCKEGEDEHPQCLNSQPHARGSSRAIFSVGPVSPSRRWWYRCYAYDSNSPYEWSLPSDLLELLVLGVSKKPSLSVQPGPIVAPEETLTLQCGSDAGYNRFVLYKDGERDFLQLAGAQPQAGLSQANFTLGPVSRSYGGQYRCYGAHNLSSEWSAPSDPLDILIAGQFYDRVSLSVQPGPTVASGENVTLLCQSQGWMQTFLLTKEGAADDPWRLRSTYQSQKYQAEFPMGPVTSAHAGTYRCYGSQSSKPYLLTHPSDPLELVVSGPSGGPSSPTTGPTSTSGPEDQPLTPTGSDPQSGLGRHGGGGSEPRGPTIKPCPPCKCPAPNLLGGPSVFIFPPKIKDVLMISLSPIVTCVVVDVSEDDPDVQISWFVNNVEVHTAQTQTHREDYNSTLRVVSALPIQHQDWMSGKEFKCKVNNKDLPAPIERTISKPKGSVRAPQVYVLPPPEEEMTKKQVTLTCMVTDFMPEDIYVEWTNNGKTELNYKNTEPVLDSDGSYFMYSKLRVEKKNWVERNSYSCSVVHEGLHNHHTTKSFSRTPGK
Text: as §1, §2, §3

Human full length LILRB1 = target: T3, Human full length LILRB1 (human, UniProt Q8NHL6 24-650); assay: flow cytometry on HEK293 cells overexpressing human LILRB1
T3 construct: Over-expressed on HEK293 cells for flow cytometry; also called LILRB1 on HEK293 cells; cell membrane embedded LILRB1
Protocol: FIG. 5. Binding to LILRB1 over-expressing cell line. HEK293 cells overexpressing full length human LILRB1 (SEQ ID NO: 45) were incubated with various concentrations of test antibodies (Antibody 1 to 5 and Reference Ab 1). The bound antibodies were detected using PE-labeled secondary antibodies and analyzed by flow cytometry. A) Plot showing mean fluorescence intensity (MFI), B) EC50 values calculated using data from panel A.
Binding to human LILRB1 and LILRB2. HEK293 cells stably expressing full length human LILRB1 (SEQ ID NO: 45), or LILRB2 (SEQ ID NO: 46), or wild-type cells were detached from the culture plates using methods known in art. […] The extent of antibody binding to cells stably expressing full-length human LILRB1, or full-length human LILRB2, was determined by flow cytometry and quantified using geometric mean of the fluorescent signal (GEOM).
The ability of selected anti-LILRB-1 antibodies to bind to the LILRB1 receptor in its native context of the cell membrane was investigated by flow cytometry. HEK293 cells over-expressing full length human LILRB1 (SEQ ID NO: 45) were incubated with the increasing amounts of the antibodies and the cell bound antibodies were detected using PE-labelled secondary antibodies using a flow-cytometer.

Human full length LILRB2 = target: T4, Human full length LILRB2 (human, UniProt Q8N423 22-597); assay: flow cytometry on HEK293 cells overexpressing human LILRB2
T4 construct: Over-expressed on HEK293 cells for flow cytometry; Also used here as the parent protein of the D3-D4 peptide microarrays; also called LILRB2 on HEK293 cells
T4 sequence (Q8N423 other isoform, or with tags, fused parts or gaps limits assumed): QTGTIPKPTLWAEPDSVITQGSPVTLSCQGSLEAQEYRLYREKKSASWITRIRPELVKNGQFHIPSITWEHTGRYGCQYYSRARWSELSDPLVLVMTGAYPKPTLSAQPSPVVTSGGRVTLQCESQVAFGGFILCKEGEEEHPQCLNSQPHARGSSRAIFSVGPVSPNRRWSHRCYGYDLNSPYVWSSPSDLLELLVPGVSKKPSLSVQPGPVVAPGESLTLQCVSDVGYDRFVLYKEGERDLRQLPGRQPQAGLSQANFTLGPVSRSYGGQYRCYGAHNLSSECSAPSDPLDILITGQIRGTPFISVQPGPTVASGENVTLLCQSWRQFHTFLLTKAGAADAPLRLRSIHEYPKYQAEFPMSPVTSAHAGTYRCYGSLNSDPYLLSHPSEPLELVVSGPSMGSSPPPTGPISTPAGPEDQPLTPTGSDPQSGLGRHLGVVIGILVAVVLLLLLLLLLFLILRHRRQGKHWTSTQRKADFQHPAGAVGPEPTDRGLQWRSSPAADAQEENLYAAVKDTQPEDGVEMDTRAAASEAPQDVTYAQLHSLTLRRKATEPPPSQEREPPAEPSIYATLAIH
Protocol: FIG. 7. Binding to LILRB2 over-expressing cell line. HEK293 cells overexpressing full length human LILRB2 (SEQ ID NO: 46) were incubated with various concentrations of test antibodies (Antibody 1 to 5 and Reference Antibody 1).
Binding to human LILRB1 and LILRB2. HEK293 cells stably expressing full length human LILRB1 (SEQ ID NO: 45), or LILRB2 (SEQ ID NO: 46), or wild-type cells were detached from the culture plates using methods known in art. The cells were then incubated with anti-LILRB1 Ab clones at different concentrations followed by incubation with fluorescently labelled secondary antibodies. The extent of antibody binding to cells stably expressing full-length human LILRB1, or full-length human LILRB2, was determined by flow cytometry and quantified using geometric mean of the fluorescent signal (GEOM).

[3] = target: T1, Human LILRB1 (D1-D2) fused to mouse …; assay: summary table (ELISA); N = No
[4] = target: T2, human LILRB1 ectodomain fused to mIgG2a …; assay: summary table (ELISA); Y = Yes
[5] = target: T5, Human LILRB1(L68P/A93T) ectodomain fused to mIgG2aFc (human); assay: ELISA, antigen coated, 10 nM antibody
T5 construct: The entry already carries the two substitutions
T5 sequence (chain, as listed by the source L68P A93T L68P A93T limits assumed): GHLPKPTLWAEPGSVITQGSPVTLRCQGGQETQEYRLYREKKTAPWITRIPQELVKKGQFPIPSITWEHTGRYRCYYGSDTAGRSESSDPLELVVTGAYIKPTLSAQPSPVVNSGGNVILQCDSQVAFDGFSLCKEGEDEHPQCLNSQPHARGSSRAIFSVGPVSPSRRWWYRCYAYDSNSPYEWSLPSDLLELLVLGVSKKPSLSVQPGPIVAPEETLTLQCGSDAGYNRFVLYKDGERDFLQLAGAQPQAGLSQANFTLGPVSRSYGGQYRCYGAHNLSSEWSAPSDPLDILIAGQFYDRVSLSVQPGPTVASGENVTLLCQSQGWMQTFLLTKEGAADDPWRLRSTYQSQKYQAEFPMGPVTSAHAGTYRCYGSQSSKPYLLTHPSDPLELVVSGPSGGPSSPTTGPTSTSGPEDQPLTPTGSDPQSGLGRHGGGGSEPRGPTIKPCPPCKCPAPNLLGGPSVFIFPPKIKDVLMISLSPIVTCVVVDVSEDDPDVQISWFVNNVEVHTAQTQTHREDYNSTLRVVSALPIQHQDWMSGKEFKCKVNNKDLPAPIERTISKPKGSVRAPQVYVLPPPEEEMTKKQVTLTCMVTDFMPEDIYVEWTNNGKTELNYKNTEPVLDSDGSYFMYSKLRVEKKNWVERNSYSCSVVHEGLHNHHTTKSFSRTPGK
Text: as §1, §2, §3

[6] = target: T6, Human LILRB1(I142T/S155I) ectodomain fused to mIgG2aFc (human); assay: ELISA, antigen coated, 10 nM antibody
T6 construct: The entry already carries the two substitutions
Text: as §1, §2, §3

Human LILRA2 ectodomain = target: T7, Human LILRA2 ectodomain (human, UniProt Q8N149 24-449); assay: summary table (single point ELISA); N = No
T7 construct: Recombinant protein from a commercial source
T7 sequence (Q8N149 24-449 S135L): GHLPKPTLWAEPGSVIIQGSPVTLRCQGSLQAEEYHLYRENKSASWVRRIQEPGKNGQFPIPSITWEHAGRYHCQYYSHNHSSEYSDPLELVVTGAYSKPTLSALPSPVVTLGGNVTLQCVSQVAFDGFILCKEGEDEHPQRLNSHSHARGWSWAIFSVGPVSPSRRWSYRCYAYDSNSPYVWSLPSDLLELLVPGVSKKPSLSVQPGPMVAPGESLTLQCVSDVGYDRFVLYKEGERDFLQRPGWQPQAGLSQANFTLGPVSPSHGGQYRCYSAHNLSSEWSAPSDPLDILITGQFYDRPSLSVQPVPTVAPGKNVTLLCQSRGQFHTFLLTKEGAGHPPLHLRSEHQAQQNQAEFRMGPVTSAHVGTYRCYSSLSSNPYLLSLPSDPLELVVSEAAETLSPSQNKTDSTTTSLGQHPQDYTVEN

[7] = target: LILRB4 recombinant, full-length ectodomain (LILRB4 17-257) (human, UniProt Q8NHJ6 22-257); assay: summary table (single point ELISA); N = No
[8] = target: LILRB5 recombinant, full-length ectodomain (LILRB5 18-456) (human, UniProt O75023 24-456); assay: summary table (single point ELISA); N = No
LILRB5 recombinant, full-length ectodomain (LILRB5 18-456), sequence (O75023 24-456 limits assumed): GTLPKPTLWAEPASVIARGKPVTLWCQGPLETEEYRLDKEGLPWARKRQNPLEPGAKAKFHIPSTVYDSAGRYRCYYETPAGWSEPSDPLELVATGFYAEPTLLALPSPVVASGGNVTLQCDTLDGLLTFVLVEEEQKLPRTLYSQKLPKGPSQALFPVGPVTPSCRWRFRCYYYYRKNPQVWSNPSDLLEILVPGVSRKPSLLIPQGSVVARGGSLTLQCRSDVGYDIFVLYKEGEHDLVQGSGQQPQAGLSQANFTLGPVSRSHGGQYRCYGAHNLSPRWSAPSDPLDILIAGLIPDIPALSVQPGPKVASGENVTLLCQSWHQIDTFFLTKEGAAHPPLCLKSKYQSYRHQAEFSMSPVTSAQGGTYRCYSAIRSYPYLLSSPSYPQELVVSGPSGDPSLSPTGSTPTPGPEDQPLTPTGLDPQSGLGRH

[9] = target: LILRA5 recombinant, full-length ectodomain (LILRA5 42-268) (human, UniProt A6NI73 42-268); assay: summary table (single point ELISA); N = No
LILRA5 recombinant, full-length ectodomain (LILRA5 42-268), sequence (A6NI73 42-268): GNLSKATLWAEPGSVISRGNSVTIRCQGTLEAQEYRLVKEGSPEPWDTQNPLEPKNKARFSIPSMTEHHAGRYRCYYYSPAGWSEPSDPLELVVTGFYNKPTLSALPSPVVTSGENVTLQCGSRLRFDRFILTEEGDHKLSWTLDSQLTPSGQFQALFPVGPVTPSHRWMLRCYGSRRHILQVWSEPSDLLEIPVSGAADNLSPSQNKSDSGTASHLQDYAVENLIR

Human LILRA1 ectodomain = target: T8, Human LILRA1 ectodomain (human, UniProt O75019 17-461); assay: multi-point ELISA, antigen coated, apparent EC50
T8 construct: Recombinant protein from a commercial source
Protocol: (§4) FIG. 32. Binding of Clones 1-5 to selected LILR family members tested by multiple point ELISA. Recombinant LILRB1, LILRB2, LILRB3, LILRA1, LILRA3, LILRA4, and LILRA6, or irrelevant control protein were coated on the ELISA plates. The plates were then blocked with milk in PBST. Next, the plates were incubated with serial dilutions (12.5 nM to 0.02 nM) of Clones 1-5 (A-E). Bound antibodies were detected using HRP-conjugated anti-human Fc antibodies and the chromogenic substrate.
as §4, with “Binding of” for “FIG. 32. Binding of”, “point ELISA. (FIG. 32) Recombinant LILRB1,” for “point ELISA. Recombinant LILRB1,”, “LILRA3, LILRA4, LILRA6, or” for “LILRA3, LILRA4, and LILRA6, or”, “nM) of Clone 1-5 (A-E).” for “nM) of Clones 1-5 (A-E).”

Human full length LILRA3 = target: T9, Human full length LILRA3 (human, UniProt Q8N6C8 24-439); assay: multi-point ELISA, antigen coated, apparent EC50
T9 construct: Commercial recombinant protein; also the parent of the LILRA3 peptide microarrays
T9 sequence (Q8N6C8 24-439 A105V limits assumed): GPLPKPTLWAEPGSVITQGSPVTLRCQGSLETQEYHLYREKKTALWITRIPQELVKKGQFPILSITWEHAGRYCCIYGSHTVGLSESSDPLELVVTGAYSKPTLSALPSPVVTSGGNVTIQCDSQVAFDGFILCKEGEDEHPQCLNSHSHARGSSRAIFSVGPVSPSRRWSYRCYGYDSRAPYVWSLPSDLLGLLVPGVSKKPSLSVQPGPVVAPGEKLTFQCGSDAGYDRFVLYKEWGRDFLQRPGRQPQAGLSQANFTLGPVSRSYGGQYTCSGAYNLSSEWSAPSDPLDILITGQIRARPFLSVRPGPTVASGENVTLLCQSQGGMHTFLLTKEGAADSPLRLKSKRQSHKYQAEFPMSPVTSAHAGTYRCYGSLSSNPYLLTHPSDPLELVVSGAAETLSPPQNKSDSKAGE
Protocol: as §4
as §4, with “Binding of” for “FIG. 32. Binding of”, “point ELISA. (FIG. 32) Recombinant LILRB1,” for “point ELISA. Recombinant LILRB1,”, “LILRA3, LILRA4, LILRA6, or” for “LILRA3, LILRA4, and LILRA6, or”, “nM) of Clone 1-5 (A-E).” for “nM) of Clones 1-5 (A-E).”

[10] = target: LILRB1 recombinant, full-length ectodomain (human, UniProt Q8NHL6 24-461); assay: multi-point ELISA, antigen coated, apparent EC50
LILRB1 recombinant, full-length ectodomain, sequence (Q8NHL6 24-461 limits assumed): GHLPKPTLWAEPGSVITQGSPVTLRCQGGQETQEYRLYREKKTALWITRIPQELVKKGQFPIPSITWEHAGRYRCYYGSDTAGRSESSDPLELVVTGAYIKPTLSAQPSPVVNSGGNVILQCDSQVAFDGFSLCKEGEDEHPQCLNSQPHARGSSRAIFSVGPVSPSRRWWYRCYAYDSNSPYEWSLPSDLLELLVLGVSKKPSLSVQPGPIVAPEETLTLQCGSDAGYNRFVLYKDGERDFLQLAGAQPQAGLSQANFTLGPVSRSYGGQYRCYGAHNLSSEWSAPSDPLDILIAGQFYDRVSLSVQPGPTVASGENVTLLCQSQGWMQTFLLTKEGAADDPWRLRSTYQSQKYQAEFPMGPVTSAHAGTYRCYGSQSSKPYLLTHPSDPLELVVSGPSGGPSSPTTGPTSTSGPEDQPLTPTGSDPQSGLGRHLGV
Protocol: as §4
as §4, with “Binding of” for “FIG. 32. Binding of”, “point ELISA. (FIG. 32) Recombinant LILRB1,” for “point ELISA. Recombinant LILRB1,”, “LILRA3, LILRA4, LILRA6, or” for “LILRA3, LILRA4, and LILRA6, or”, “nM) of Clone 1-5 (A-E).” for “nM) of Clones 1-5 (A-E).”

[11] = target: LILRB2 recombinant, full-length ectodomain (LILRB2 22-458) (human, UniProt Q8N423 22-458); assay: multi-point ELISA, antigen coated, apparent EC50
Protocol: as §4
as §4, with “Binding of” for “FIG. 32. Binding of”, “point ELISA. (FIG. 32) Recombinant LILRB1,” for “point ELISA. Recombinant LILRB1,”, “LILRA3, LILRA4, LILRA6, or” for “LILRA3, LILRA4, and LILRA6, or”, “nM) of Clone 1-5 (A-E).” for “nM) of Clones 1-5 (A-E).”

[12] = target: LILRB3 recombinant, full-length ectodomain (LILRB3 24-443) (human, UniProt O75022 24-443); assay: multi-point ELISA, antigen coated, apparent EC50
Protocol: as §4
as §4, with “Binding of” for “FIG. 32. Binding of”, “point ELISA. (FIG. 32) Recombinant LILRB1,” for “point ELISA. Recombinant LILRB1,”, “LILRA3, LILRA4, LILRA6, or” for “LILRA3, LILRA4, and LILRA6, or”, “nM) of Clone 1-5 (A-E).” for “nM) of Clones 1-5 (A-E).”

[13] = target: LILRA4 recombinant, full-length ectodomain (LILRA4 24-446) (human, UniProt P59901 24-446); assay: multi-point ELISA, antigen coated, apparent EC50
LILRA4 recombinant, full-length ectodomain (LILRA4 24-446), sequence (P59901 24-446): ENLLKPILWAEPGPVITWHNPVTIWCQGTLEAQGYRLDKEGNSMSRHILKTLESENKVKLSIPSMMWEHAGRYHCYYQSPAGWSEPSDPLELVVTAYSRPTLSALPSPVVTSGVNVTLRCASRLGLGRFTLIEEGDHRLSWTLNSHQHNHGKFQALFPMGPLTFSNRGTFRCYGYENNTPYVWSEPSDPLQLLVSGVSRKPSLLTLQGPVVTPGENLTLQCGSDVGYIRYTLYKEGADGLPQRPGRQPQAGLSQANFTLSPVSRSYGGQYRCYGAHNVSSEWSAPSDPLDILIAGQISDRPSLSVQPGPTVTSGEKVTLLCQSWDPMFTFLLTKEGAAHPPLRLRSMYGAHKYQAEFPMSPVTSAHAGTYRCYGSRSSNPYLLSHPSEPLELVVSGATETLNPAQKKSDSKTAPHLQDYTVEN
Protocol: as §4
as §4, with “Binding of” for “FIG. 32. Binding of”, “point ELISA. (FIG. 32) Recombinant LILRB1,” for “point ELISA. Recombinant LILRB1,”, “LILRA3, LILRA4, LILRA6, or” for “LILRA3, LILRA4, and LILRA6, or”, “nM) of Clone 1-5 (A-E).” for “nM) of Clones 1-5 (A-E).”

[14] = target: LILRA6 recombinant, full-length ectodomain (LILRA6 24-447) (human, UniProt Q6PI73 24-447); assay: multi-point ELISA, antigen coated, apparent EC50
Protocol: as §4
as §4, with “Binding of” for “FIG. 32. Binding of”, “point ELISA. (FIG. 32) Recombinant LILRB1,” for “point ELISA. Recombinant LILRB1,”, “LILRA3, LILRA4, LILRA6, or” for “LILRA3, LILRA4, and LILRA6, or”, “nM) of Clone 1-5 (A-E).” for “nM) of Clones 1-5 (A-E).”

[15] = target: T10, Rhesus monkey (Macaca mulatta) LILRB ectodomain fused to mIgG2a Fc (rhesus monkey (Macaca mulatta)); assay: summary table (ELISA); Rhesus & Cyno LILRB1/2 binding; Y = Yes
T10 construct: also called rhesus LILRB-mIgG2a; rhesus LILRB protein

[16] = target: T11, Cynomolgus monkey (Macaca fascicularis) LILRB ectodomain fused to mIgG2a (cynomolgus monkey (Macaca fascicularis)); assay: as above
T11 construct: also called cynomolgus LILRB protein

T1 sequence (chain, as listed by the source limits assumed): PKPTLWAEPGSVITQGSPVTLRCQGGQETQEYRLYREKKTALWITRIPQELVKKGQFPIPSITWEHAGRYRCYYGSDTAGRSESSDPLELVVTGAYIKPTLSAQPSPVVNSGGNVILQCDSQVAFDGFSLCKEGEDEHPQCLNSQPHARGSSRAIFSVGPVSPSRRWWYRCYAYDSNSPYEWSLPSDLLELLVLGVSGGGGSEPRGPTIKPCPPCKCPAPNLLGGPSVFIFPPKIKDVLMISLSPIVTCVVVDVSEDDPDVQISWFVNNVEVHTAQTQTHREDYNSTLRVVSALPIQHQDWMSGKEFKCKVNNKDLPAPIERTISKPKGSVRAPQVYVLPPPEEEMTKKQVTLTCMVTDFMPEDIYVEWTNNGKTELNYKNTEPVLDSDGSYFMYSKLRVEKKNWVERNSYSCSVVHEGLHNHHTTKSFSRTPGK

B1: Reference Antibody 1 (anti-human LILRB1 Ab) (antibody, V domains shown)
VH: DVQLQGSGPGLVKPSETLSLTCSVTGYSITSGYYWNWIRQFPGKKLEWMGYISYDGSNNYNPSLKNRITISRDTSKNQFSLKLNSVTAADTATYYCAHGYSYYYAMDAWGQGTSVTVSS
VL: DIQMTQSPSSLSASVGDRVTITCRTSQDISNYLNWYQQKPGKAVKLLISYTSRLHSGVPSRFSGSGSGTDYTLTISSLQPEDFATYYCQQGNTLPTFGQGTKLEIK
binding result [1]: binds
binding result [2]: binds
EC50 (Human full length LILRB1): 0.73 nM
binding result (Human full length LILRB2): no binding

B2: Antibody 2 (antibody, V domains shown)
VH: QVQLVESGGDLVKPGGSLRLSCAASGFTFRDYYMSWIRQAPGKGLEWVSYISPSGSTIFYADSVKGRFTISRDNAKNSLYLQMNSLRAEDTAVYYCAKDRVRLFDYWGQGTLVTVSS
VL: EIVLTQSPATLSLSPGERATLSCRASQSVSSSYLAWYQQKPGQAPRLLIYGASTRATGIPARFSGSGSGTDFTLTISRLEPEDFAVYYCQQRSNWPITFGQGTRLEIK
notes: Fully human antibody; IgG1 and IgG1 LALA variants also made for functional assays; also called Clone 2; Antibody Clone 2
binding result [3]: no binding
binding result [4]: binds
binding result [5]: binds
binding result [6]: binds
binding result (Human LILRA2 ectodomain): no binding (tested: 1 nM)
binding result [7]: no binding (tested: 1 nM)
binding result [8]: no binding (tested: 1 nM)
binding result [9]: no binding (tested: 1 nM)
EC50 (Human LILRA1 ectodomain): 8.37 nM
EC50 (Human full length LILRA3): 0.84 nM
EC50 [10]: 0.78 nM
EC50 [11]: 0.74 nM
EC50 [12]: 0.69 nM
EC50 [13]: 0.62 nM
EC50 [14]: 0.92 nM
binding result [15]: binds
binding result [16]: binds
